Laboratory results reported in article PMC11538689 (2024).

Tests used:
[1] = biological target: nanobody‐based trispecific T cell engager (Nb‐TriTE) (human, UniProt P01857 = IgG part); test: SPR
Muromonab = test: SPR

B1: rhCD3 (protein)
chain: DGNEEMGGITQTPYKVSISGTTVILTCPQYPGSEILWQHNDKNIGGDEDDKNIGSDEDHLSLKEFSELEQSGYYVCYPRGSKPEDANFYLYLRARVCENCMEMD
A Kd [1] of 0.337 nM and a Kd (Muromonab) of 7.68 nM were found for B1 in this work.
